In publication PMC10120002 (Proceedings of the National Academy of Sciences of the …, 2023):

How the values were obtained:
[1] = molecular target: T1, recombinant Cdk5/p25 complex (UniProt Q00535 1-292; Q15078 99-307); test: BLI
[2] = molecular target: T1, recombinant Cdk5/p25 complex; test: MST
[3] = molecular target: Cdk5 protein alone (recombinant) (UniProt Q00535 1-292); test: MST

B1: Cdk5i peptide (peptide)
peptide: ARAFGIPVRCYS
**Q.** For B1, which Kd [1] is on record?
**A.** 220 nM

**Q.** What about the Kd [2] of the same binder?
**A.** 170 nM

**Q.** And the Kd [3]?
**A.** 15700 nM
